Assays:
[1] = biological target: 2019-nCoV S prefusion-stabilized ectodomain (residues 1-1208, two proline substitutions, GSAS at the (2019-nCoV | bacteriophage T4)); experiment: cryo-EM structure
[2] = biological target: 2019-nCoV S prefusion-stabilized ectodomain (residues 1-1208, two proline substitutions, GSAS at the (2019-nCoV | bacteriophage T4)); experiment: SPR; […], Biacore X100; 10 mM HEPES pH 8.0, 150 mM NaCl, 0.05% Tween 20; […]; 1:1 binding model

human angiotensin-converting enzyme 2 (ACE2), residues 1-615, untagged, sequence (Q9BYF1 18-615): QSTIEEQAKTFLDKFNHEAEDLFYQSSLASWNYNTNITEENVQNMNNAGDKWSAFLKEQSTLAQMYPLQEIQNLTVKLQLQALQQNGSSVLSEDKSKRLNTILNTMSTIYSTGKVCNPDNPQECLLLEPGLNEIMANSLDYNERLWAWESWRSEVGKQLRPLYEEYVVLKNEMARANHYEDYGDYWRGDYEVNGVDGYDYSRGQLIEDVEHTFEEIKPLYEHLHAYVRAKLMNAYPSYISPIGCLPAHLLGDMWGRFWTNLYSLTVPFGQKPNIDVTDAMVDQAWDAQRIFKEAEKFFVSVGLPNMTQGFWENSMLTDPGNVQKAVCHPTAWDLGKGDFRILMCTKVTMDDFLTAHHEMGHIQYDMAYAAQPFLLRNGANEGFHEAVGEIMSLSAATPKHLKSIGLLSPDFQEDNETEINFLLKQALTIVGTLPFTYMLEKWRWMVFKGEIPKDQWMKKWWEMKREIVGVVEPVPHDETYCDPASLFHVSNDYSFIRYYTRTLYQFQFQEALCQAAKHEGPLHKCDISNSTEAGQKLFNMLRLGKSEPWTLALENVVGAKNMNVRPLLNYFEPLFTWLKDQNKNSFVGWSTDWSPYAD

| Substance | stoichiometry N [1] | Kd [2] |
| --- | --- | --- |
| 2019-nCoV S prefusion-stabilized ectodomain (residues 1-1208, two proline substitutions, GSAS at the (domain or fragment) | 3 |  |
| human angiotensin-converting enzyme 2 (ACE2), residues 1-615, untagged (from UniProt Q9BYF1 18-615) (receptor) |  | 15 nM |

From article doi:10.1101/2020.02.11.944462
